# Laboratory results: PMC3274534
# Target: recombinant human adenovirus type 5 (E1 region replaced by lacZ cDNA), whole virus particles (human adenovirus type 5) (UniProt P04133)
substance,measurement,value
human coagulation factor X (zymogen) (natural protein),"binding of the virus-hFX complex to heparan sulfate-coated plates (attached particles by real-time PCR), enhancement over virus alone; hFX at 0.008 and 0.05 mg/ml",7.5 times
